This is an account of results in patent publication US20230167182A1 (BIOSION, published 2023).

Residue numbers refer to the chain shown, from its start.

In assay [1] the target is T1, macaca IL6R-his protein (macaca mulatta).
T1 chain: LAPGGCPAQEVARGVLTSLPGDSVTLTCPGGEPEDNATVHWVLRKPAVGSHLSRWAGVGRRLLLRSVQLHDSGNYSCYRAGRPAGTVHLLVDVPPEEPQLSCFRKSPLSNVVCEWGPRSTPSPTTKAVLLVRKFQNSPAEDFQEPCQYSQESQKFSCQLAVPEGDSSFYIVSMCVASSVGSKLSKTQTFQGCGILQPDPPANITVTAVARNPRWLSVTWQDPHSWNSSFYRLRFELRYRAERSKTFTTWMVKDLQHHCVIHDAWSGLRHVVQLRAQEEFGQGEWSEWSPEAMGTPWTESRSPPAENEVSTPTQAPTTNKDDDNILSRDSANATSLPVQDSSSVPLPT
In words: SPR Biacore; purified antibody captured by anti-human IgG on CM5, antigen in flow. In general terms: Surface plasmon resonance follows binding to a sensor surface in real time, without labels.

The target of assay [2] is T2, recombinant human IL6R-his (human, UniProt P08887 20-365).
T2 construct: In house made; the entry includes the C-terminal His tag; also called human IL6R-his protein
T2 sequence: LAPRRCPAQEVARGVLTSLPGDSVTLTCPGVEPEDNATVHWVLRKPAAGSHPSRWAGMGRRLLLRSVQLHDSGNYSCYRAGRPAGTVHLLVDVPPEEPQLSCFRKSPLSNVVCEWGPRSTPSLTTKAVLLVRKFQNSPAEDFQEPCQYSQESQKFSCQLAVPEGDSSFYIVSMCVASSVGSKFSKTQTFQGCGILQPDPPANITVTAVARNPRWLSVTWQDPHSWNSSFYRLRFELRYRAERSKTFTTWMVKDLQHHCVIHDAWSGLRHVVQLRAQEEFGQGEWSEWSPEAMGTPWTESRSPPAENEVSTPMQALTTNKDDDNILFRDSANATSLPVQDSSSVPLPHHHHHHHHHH
Described as above.

The target of assay [3] is T3, human IL6R-Fc protein (human, biotin-labeled in the ELISAs (sites not given)).
T3 construct: In house made; also called biotin-labeled human IL6R-Fc protein
The assay is described as follows: ligand blocking ELISA: antibody pre-incubated with biotin-labeled human IL6R-Fc, added to plate-coated human IL6 (blocked ligand: human IL6). How it is done:
(§1) ELISA plates were washed once with wash buffer (PBS+0.05% v/v Tween-20, PBST) and then blocked with 200 μl/well blocking buffer (5% w/v non-fatty milk in PBST) overnight at 4° C.
(§2) The next day, anti-IL6R antibodies or controls were diluted with biotin labeled human IL6R-Fc protein (prepared in house, SEQ ID NO: 43, 39.5 ng/ml in 2.5% w/v non-fatty milk in PBST), starting at 100 nM with a 4-fold serial dilution, and incubated at room temperature for 40 minutes. […] Plates were washed for 4 times using wash buffer, and added and incubated with 100 μl/well of streptavidin conjugated HRP (1:10000 dilution in PBST buffer, Jackson ImmunoResearch Laboratories, Inc., Cat #016-030-084) for 40 minutes at 37° C. Plates were washed again using wash buffer. Finally, TMB was added and the reaction was stopped using 1M H₂SO₄. The absorbance was read on a microplate reader using dual wavelength mode with 450 nm for TMB and 630 nm as the reference wavelength, and then the OD (450-630) values were plotted against antibody concentration. Data was analyzed using Graphpad Prism software and IC₅₀ values were reported.
Target sequence in this assay (chain, as listed by the source limits assumed): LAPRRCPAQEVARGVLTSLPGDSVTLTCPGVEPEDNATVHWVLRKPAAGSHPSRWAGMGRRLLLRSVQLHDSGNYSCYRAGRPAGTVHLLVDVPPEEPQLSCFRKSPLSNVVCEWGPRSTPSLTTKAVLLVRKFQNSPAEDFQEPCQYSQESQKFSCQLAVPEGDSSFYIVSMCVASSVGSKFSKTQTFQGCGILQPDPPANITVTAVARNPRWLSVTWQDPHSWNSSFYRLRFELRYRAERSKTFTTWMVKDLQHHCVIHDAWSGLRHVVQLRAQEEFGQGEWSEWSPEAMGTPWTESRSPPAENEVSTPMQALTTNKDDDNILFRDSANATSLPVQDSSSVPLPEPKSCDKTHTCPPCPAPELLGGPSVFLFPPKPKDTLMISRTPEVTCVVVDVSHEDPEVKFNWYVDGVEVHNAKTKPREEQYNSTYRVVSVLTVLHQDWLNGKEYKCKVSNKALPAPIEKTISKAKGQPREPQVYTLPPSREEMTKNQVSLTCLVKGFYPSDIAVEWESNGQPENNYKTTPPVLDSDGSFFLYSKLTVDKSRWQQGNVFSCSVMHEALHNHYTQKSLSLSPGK

The target in assay [4] is T3, human IL6R-Fc protein. The assay is described as follows: benchmark blocking ELISA: antibody pre-incubated with biotin-labeled human IL6R-Fc, added to plate-coated Tocilizumab (competitor: Tocilizumab). The method, then: as §1
(§3) The next day, the anti-IL6R antibodies of the disclosure or controls were diluted with biotin labeled human IL6R-Fc protein (SEQ ID NO: 43, 13.6 ng/ml in 2.5% w/v non-fatty milk in PBST), starting at 100 nM with a 5-fold serial dilution, and incubated at room temperature for 40 minutes. […] After incubation at 37° C. for 40 minutes, plates were washed 4 times using wash buffer. Then streptavidin conjugated HRP was added, and the plates were incubated for 40 minutes at 37° C. The plates were finally washed using wash buffer, and added with TMB. The reaction was stopped using 1M […], and the absorbance was read on a microplate reader using dual wavelength mode with 450 nm for TMB and 630 nm as the reference wavelength. The OD (450-630) values were plotted against antibody concentration. Data was analyzed using Graphpad Prism software and IC₅₀ values were reported.
Target sequence in this assay (chain, as listed by the source limits assumed): as above

The target of assay [5] is T1, macaca IL6R-his protein. The assay is described as follows: indirect ELISA on plate-coated macaca IL6R-his. The method, then: The anti-IL6R antibodies were tested for their cross-reaction with macaca IL6R. Briefly, 96-well micro plates were coated with 2 μg/ml macaca IL6R-his protein (in house made, amino acid sequence set forth in SEQ ID NO:45) in carbonate/bicarbonate buffer (pH 9.6), 100 μl/well, for 2 hours at 37° C. ELISA plates were washed once with wash buffer (PBS+0.05% v/v Tween-20, PBST) and then blocked with 200 μl/well blocking buffer (5% w/v non-fatty milk in PBST) for 2 hours at 37° C. Plates were washed 4 times and incubated with 100 μl/well serially diluted anti-IL6R antibodies of the disclosure or controls, starting at 66.67 nM with 5-fold serial dilution in PBST with 2.5% w/v non-fat milk, and incubated at 37° C. for 40 minutes. ELISA plates were washed 4 times again and incubated with 100 μl/well Peroxidase AffiniPure Goat Anti-Mouse IgG, Fcγ Fragment Specific (1:5000 dilution in PBST buffer, Jackson ImmunoResearch Laboratories, Inc., Cat #115-035-071) for 40 minutes at 37° C. After the final wash, plates were incubated with 100 μl/well TMB (InnoReagents). The reaction was stopped 3-10 minutes later at room temperature with 50 μl/well 1M H₂SO₄, and the absorbance of each well was read on a microplate reader using dual wavelength mode with 450 nm for TMB and 630 nm as the reference wavelength. Then the OD (450-630) values were plotted against antibody concentration. Data was analyzed using Graphpad Prism software and EC₅₀ values were reported.
A general note: In an ELISA, binding on a coated surface is turned into a signal by an enzyme label.

For assay [6], the target named is T3, human IL6R-Fc protein. The assay is described as follows: ligand blocking ELISA: antibody pre-incubated with biotin-labeled human IL6R-Fc, added to plate-coated human IL6 (blocked ligand: human IL6). The method, then: as §2
This is another data set of the same source.

Assay [7] deals with T3, human IL6R-Fc protein. The assay is described as follows: benchmark blocking ELISA: antibody pre-incubated with biotin-labeled human IL6R-Fc, added to plate-coated Tocilizumab (competitor: Tocilizumab). The method, then: as §1, §3
This is another data set of the same source.
Target sequence in this assay (chain, as listed by the source limits assumed): as above

Assay [8] concerns the target T3, human IL6R-Fc protein. Described as above. How it is done:
as §1, §3
The source holds these as a separate data set.

B1: Chimeric 1H7 (antibody, human IgG1, kappa, V domains shown)
VH: QVQLQQPGTELVKPGASVKLSCKASGYTFTNYWMHWVKQRPGQGLDWIGEINPTNGRTNYNENFKSKATLTVDKSSSTAYMQLSSLTSEDSAVYYCARLNTHYVFDSWGQGTTLTLSS
VL: EIVLTQSPTTLAASPGEKITFTCSVSSSISSNYLHWYQQKPGFSPKLLISRTSTLASGVPARFSGSGSGTSYSLTIGTMEAEDVATYYCQQGSGIPFTFGSGTKLELKR
notes: Mouse variable regions on human IgG1 / human kappa constant regions; also called chimeric antibody 1H7
In the case of B1, in the assay with macaca IL6R-his protein [1], the Kd (usually the concentration at which binding is half-saturated) is 1180 pM, the koff (usually the first-order rate constant of dissociation) is 0.000112 s⁻¹ and the kon (commonly the second-order rate constant of association) was 94800 M⁻¹ s⁻¹. Also, in assay [2], the Kd was 850 pM, the koff worked out at 0.000112 s⁻¹ and the kon was determined as 132000 M⁻¹ s⁻¹. For the same molecule, the midpoint of inhibition in the assay with human IL6R-Fc protein [3], the IC50, lay at 161 pM. Besides, the IC50 (usually the concentration needed to halve the response being measured) in the assay with human IL6R-Fc protein [4] came to 203 pM.

B2: mouse anti-IL6R monoclonal antibody 1F7 (antibody, V domains shown)
VH: QVQLQQPGAELVKPGASVKLSCKASDYTFTSYWMHWVKQRPGQGLEWIGEINPSNGRTNYNEKFKNKATLTVDKSSSTAYVQLYSLTSEDSAVYYCARLSIHYVFDYWGQGTTLTVSS
VL: ELVLTQSPTTMAASPGEKITFTCSASSSISSNYLHWYQQKPGFSPKLLISGTSNLASGVPPRFSGSGSGTSYSLTIVTMEAEDVATYYCQQGSGIPFTFGSGTKLEIK
notes: Mouse hybridoma mAb
Consider B2, for which, in the assay with macaca IL6R-his protein [5], it took 140 pM to reach a half-maximal effect (EC50). This molecule returned an IC50 with human IL6R-Fc protein [6] of 617 pM.

B3: mouse anti-IL6R monoclonal antibody 1A3 (antibody, V domains shown)
VH: QVQLQQPGAELVKPGASVKLSCKASGYTFTSYWMHWVKQRPAQGLEWIGEINPSNGRTNFNEKFKTKATLTVDKSSNTAYMQLSSLTSEDSAVYSCLRLNTHYVFDYWGQGTTLTVSS
VL: B2 VL with L2I, F21I, G51R, P61T, V77G, E82G
notes: Mouse hybridoma mAb purified on Protein A
Molecule B3 showed an IC50 in the assay with human IL6R-Fc protein [7] of 166 pM.

B4: mouse anti-IL6R monoclonal antibody 1D4 (antibody, V domains shown)
VH: B1 VH with T9A, N31S, Q39V, D46E, N63D, D73N, K74S, S107Y, L116V
VL: B2 VL with L2I, T10I, M11L, A25V, S50Y, G51R, P61A, V77G
notes: Mouse hybridoma mAb
The molecule B4 returned an IC50 in the assay with human IL6R-Fc protein [6] of 957 pM.

B5: mouse anti-IL6R monoclonal antibody 1H7 (antibody, V domains shown)
VH: B1 VH
VL: B2 VL with L2I, M11L, A25V, G51R, N54T, P61A, V77G, I107L
notes: Mouse hybridoma mAb
Turning to B5, the EC50 (in general, the concentration that produces a half-maximal response) with macaca IL6R-his protein [5] amounted to 213 pM. The IC50 with human IL6R-Fc protein [3] was 189 pM; with human IL6R-Fc protein [8] it was 105 pM; in the assay with human IL6R-Fc protein [4], 238 pM.

B6: mouse anti-IL6R monoclonal antibody 3C2 (antibody, V domains shown)
VH: B1 VH with N31T, M34I, D46E, T54S, N63H, Y80S, E89A, L116V
VL: B2 VL with L2I, F21I, S50Y, G51R, P61T, R62H, V77G
notes: Mouse hybridoma mAb
On to B6, for which, in the assay with macaca IL6R-his protein [5], a half-maximal effect (EC50) was put at 296 pM.

B7: mouse anti-IL6R monoclonal antibody 1B5 (antibody, V domains shown)
VH: B1 VH with T9A, N31S, D46E, T54S, S107Y, L116V
VL: B2 VL with L2I, T10I, M11L, A25V, S50Y, G51R, P61A, V77G
notes: Mouse hybridoma mAb
In the assay with macaca IL6R-his protein [5], B7 displayed a half-maximal effective concentration (EC50) of 205 pM. This molecule also gave an IC50 with human IL6R-Fc protein [7] of 162 pM.

B8: humanized antibody hu1H7-V5 (antibody, human IgG1, kappa, V domains shown)
VH: QVQLVQSGAEVKKPGASVKVSCKASGYTFTNYWMHWVRQAPGQGLEWIGEINPTNGRTNYNENFKSRVTLTVDTSTSTVYMELSSLRSEDTAVYYCARLNTHYVFDSWGQGTLVTVSS
VL: EIVLTQSPGTLSLSPGERATLSCSVSSSISSNYLHWYQQKPGLSPRLLISRTSTLASGIPARFSGSGSGTEYTLTISRMQSEDFAVYYCQQGSGIPFTFGQGTKLEIKR
notes: Human IgG1 / kappa
As to B8, in the assay with macaca IL6R-his protein [1], the Kd came to 1580 pM, the koff was found to be 0.00012 s⁻¹ and the kon turned out to be 75800 M⁻¹ s⁻¹. Further, in assay [2], the Kd came to 773 pM, the koff was found to be 0.000112 s⁻¹ and the association rate constant (kon) amounted to 145000 M⁻¹ s⁻¹. The same molecule showed an IC50 with human IL6R-Fc protein [3] of 223 pM. Further, the IC50 with human IL6R-Fc protein [4] was 364 pM.

B9: Tocilizumab (antibody, human IgG1, kappa, V domains shown)
VH: QVQLQESGPGLVRPSQTLSLTCTVSGYSITSDHAWSWVRQPPGRGLEWIGYISYSGITTYNPSLKSRVTMLRDTSKNQFSLRLSSVTAADTAVYYCARSLARTTAMDYWGQGSLVTVSS
VL: DIQMTQSPSSLSASVGDRVTITCRASQDISSYLNWYQQKPGKAPKLLIYYTSRLHSGVPSRFSGSGSGTDFTFTISSLQPEDIATYYCQQGNTLPYTFGQGTKVEIKR
notes: In house made; also called benchmark; Actemra
Turning to B9, in the assay with macaca IL6R-his protein [5], the EC50 turned out to be 57.1 pM. For the same molecule, the Kd with macaca IL6R-his protein [1] is 9160 pM; in assay [2], 7420 pM. For the same molecule, the IC50 with human IL6R-Fc protein [6] came to 2300 pM; in the assay with human IL6R-Fc protein [3], 1030 pM; with human IL6R-Fc protein [7], 1410 pM; in the assay with human IL6R-Fc protein [8] it was 1580 pM; with human IL6R-Fc protein [4] it was 862 pM.

B10: mouse anti-IL6R monoclonal antibody 1H9 (antibody, V domains shown)
VH: QVQLQQPGAELVKPGASVKLSCKASGYTFTSYWMHWVKLRPGQGLEWIGEINPTNGRTNYYEKFKNRATLTADKSSSTAYMQLSSLTFEDSAVYFCAKFHYSRWYFDVWGTGTTVTVSS
VL: DIVMTQSQKFMSTSVGDRVSITCKASQNVGTAVVWYQQKPGQSPKLLINPASNRYTGVPDRFTGSGSGTDFTLTISNMQSEDLADYFCQQYSSYPLTFGAGTKLELK
notes: Mouse hybridoma mAb
Take B10: the IC50 with human IL6R-Fc protein [8] stood at 323 pM.
